According to patent publication US6958236B2, “Control of gene expression in plants” (priority 2000, dated 2005):

System: pCGS206 (luciferase reporter with response elements for the GAL4 DNA binding domain)
Experiment: Maize BMS cells bombarded with GAL4 luciferase reporter and receptor vector, GUS-normalized luciferase
Assay type: cell-based
Settings: for Experiment #1 RLU / Experiment #2 RLU: Example 28, GUS-normalized; for Fold Induction with Teb Relative to Receptor with EtOH / Fold Induction with Teb Relative to Reporter with EtOH: 20 μM Teb; for Normalized Average (EtOH): unliganded background; for Experiment #1 Luciferase / Experiment #2 Luciferase / Experiment #1 Fold Induction / Experiment #2 Fold Induction: Example 26; for Experiment #1 Fold Induction / Experiment #2 Fold Induction: + 10 μM Teb vs without
Description: (§1) Maize BMS (Black Mexican Sweet) cultured cells are transfected with pCGS206 and pCGS208 by high velocity microprojectile bombardment. In addition, an expression plasmid containing the maize ubiquitin promoter driving the expression of β-glucuronidase (GUS) is added to the transfection to serve as an internal control to normalize against variations among the samples.
(§2) Transfections are treated and cell lysates are made essentially as described in U.S. Pat. No. 5,880,333. […] Both luciferase and GUS assays are performed with 20 μl of cell lysate for each assay using the Promega Luciferase Kit (Promega cat #E1500) and GUS-Light Kit (Tropix) respectively. Relative light units are determined using a Turner Designs TD 20/20 luminometer.
In addition to tebufenozide, methoxytebufenozide (“MethoxyTeb”) is also capable of inducing gene expression in maize BMS cells. Both pCGS206 and pCGS208 are transfected as described above and methoxytebufenozide is added in place of tebufenozide at 25 μM and 10 μM.
Maize BMS cells are transfected and assayed as in Example 12.
as §1, with “Transformation of maize suspension cells, chemical treatment, and reporter activity assays are performed as described in Example 12. Maize” for “Maize”, “pCGS206 (pBS-bz1TATA/intronLUC), pCGS203 (G(M)MV), pCGS672 (G(M)MC),” for “pCGS206”, “pCGS678 (G(M)MD)” for “pCGS208”
as §2, with “Maize BMS cells are bombarded with reporter vector pCGS206 and chimeric receptors and treated with tebufenozide essentially as described in Example 12. Transfections” for “Transfections”, “units (RLU)” for “units”

[1] = BMS cells, reporter pCGS206, no ligand

B1: VG(M)M: EcR chimera: N-terminal VP16, GAL4 DBD, Manduca D and E domains; SEQ ID NO:142-143 (protein)
chain: MQQLYVDFFSPAFIRYLFAWYCFFCRCSPCCLVLLLQGSATMHVKLAPPTDVSLGDELHLDGEDVAMAHADALDDFDLDMLGDGDSPGPGFTPHDSAPYGALDMADFEFEQMFTDALGIDEYGGHVTSKLLSSIEQACDICRLKKLKCSKEKPKCAKCLKNNWECRYSPKTKRSPLTRAHLTEVESRLERLEQLFLLIFPREDLDMILKMDSLQDIKALLTGLFVQDNVNKDAVTDRLASVETDMPLTLRQHRISATSSSEESSNKGQRQLTVSTRMRPECVVPESTCKNKRREKEAQREKDKLPVSTTTVDDHMPAIMQCDPPPPEAARIHEVVPRFLTEKLMEQNRLKNVTPLSANQKSLIARLVWYQEGYEQPSEEDLKRVTQTWQLEEEEEEETDMPFRQITEMTILTVQLIVEFAKGLPGFSKISQSDQITLLKASSSEVMMLRVARRYDAATDSVLFANNQAYTRDNYRKAGMSYVIEDLLHFCRCMYSMSMDNVHYALLTAIVIFSDRPGLEQPLLVEEIQRYYLKTLRVYILNQHSASPRCAVLFGKILGVLTELRTLGTQNSNMCISLKLKNRKLPPFLEEIWDVAEVSTTKL
Experiment #1 RLU [1]: 2.21 RLU | Experiment #2 RLU [1]: 2.52 RLU

B2: G(E)MV: EcR chimera: GAL4 DBD, European corn borer D domain, Manduca sexta E domain, VP16; SEQ ID NO:126-127 (protein)
chain: MQQLYVDFFSPAFIRYLFAWYCFFCRCSPCCLVLLLQGSATMKLLSSIEQACDICRLKKLKCSKEKPKCAKCLKNNWECRYSPKTKRSPLTRAHLTEVESRLERLEQLFLLIFPREDLDMILKMDSLQDIKALLTGLFVQDNVNKDAVTDRLASVETDMPLTLRQHRISATSSSEESSNKGQRQLTVSTRMRPECVVPETQCAQKRKEKKAQREKDKLPVSTTTVDDHMPPIMQCDPPPPEAARILECLQHEVVPRFLSEKLMEQNRLKNIPPLTANQQFLIARLVWYQEGYEQPSEEDLKRVTQTWQLEEEEEEETDMPFRQITEMTILTVQLIVEFAKGLPGFSKISQSDQITLLKASSSEVMMLRVARRYDAATDSVLFANNQAYTRDNYRKAGMSYVIEDLLHFCRCMYSMSMDNVHYALLTAIVIFSDRPGLEQPLLVEEIQRYYLKTLRVYILNQHSASPRCAVLFGKILGVLTELRTLGTQNSNMCISLKLKNRKLPPFLEEIWDVAEVSTTKLAPPTDVSLGDELHLDGEDVAMAHADALDDFDLDMLGDGDSPGPGFTPHDSAPYGALDMADFEFEQMFTDALGIDEYGG
Fold Induction with Teb Relative to Receptor with EtOH (Example 24, Experiment 1): 34 fold | Fold Induction with Teb Relative to Reporter with EtOH (Example 24, Experiment 1): 135 fold | Normalized Average (EtOH) (Example 24, Experiment 1, BMS cells): 14.499 | Fold Induction with Teb Relative to Receptor with EtOH (Example 24, Experiment 2): 16 fold | Fold Induction with Teb Relative to Reporter with EtOH (Example 24, Experiment 2): 95 fold | Normalized Average (EtOH) (Example 24, Experiment 2, BMS cells): 2.537

B3: G(M)MC: EcR chimera: GAL4 DBD, Manduca sexta D and E domains, maize C1 activation domain; SEQ ID NO:134-135 (protein)
chain: MQQLYVDFFSPAFIRYLFAWYCFFCRCSPCCLVLLLQGSATMKLLSSIEQACDICRLKKLKCSKEKPKCAKCLKNNWECRYSPKTKRSPLTRAHLTEVESRLERLEQLFLLIFPREDLDMILKMDSLQDIKALLTGLFVQDNVNKDAVTDRLASVETDMPLTLRQHRISATSSSEESSNKGQRQLTVSTRMRPECVVPESTCKNKRREKEAQREKDKLPVSTTTVDDHMPAIMQCDPPPPEAARIHEVVPRFLTEKLMEQNRLKNVTPLSANQKSLIARLVWYQEGYEQPSEEDLKRVTQTWQLEEEEEEETDMPFRQITEMTILTVQLIVEFAKGLPGFSKISQSDQITLLKASSSEVMMLRVARRYDAATDSVLFANNQAYTRDNYRKAGMSYVIEDLLHFCRCMYSMSMDNVHYALLTAIVIFSDRPGLEQPLLVEEIQRYYLKTLRVYILNQHSASPRCAVLFGKILGVLTELRTLGTQNSNMCISLKLKNRKLPPFLEEIWDVAEVSTTKLPKAVRCTGGLFFFHRDTTPAHAGETATPMAGGGGGGGGEAGSSDDCSSAASVSLRVGSHDEPCFSGDGDGDWMDDVRALASFLESDEDWLRCQTAGQLA
Experiment #1 Luciferase (+ 10 μM Teb): 53.20 | Experiment #2 Luciferase (+ 10 μM Teb): 28.05 | Experiment #1 Fold Induction: 26.0 fold | Experiment #2 Fold Induction: 17.8 fold | Experiment #1 Luciferase [1]: 2.05 | Experiment #2 Luciferase [1]: 1.58

B4: GV(M)M: EcR chimera: GAL4 DBD, internal VP16, Manduca D and E domains; SEQ ID NO:147-148 (protein)
chain: MQQLYVDFFSPAFIRYLFAWYCFFCRCSPCCLVLLLQGSATMKLLSSIEQACDICRLKKLKCSKEKPKCAKCLKNNWECRYSPKTKRSPLTRAHLTEVESRLERLEQLFLLIFPREDLDMILKMDSLQDIKALLTGLFVQDNVNKDAVTDRLASVETDMPLTLRQHRISATSSSEESSNKGQRQLTVSTRMRPECVVPESTCKLAPPTDVSLGDELHLDGEDVAMAHADALDDFDLDMLGDGDSPGPGFTPHDSAPYGALDMADFEFEQMFTDALGIDEYGGNTCKNKRREKEAQREKDKLPVSTTTVDDHMPAIMQCDPPPPEAARIHEVVPRFLTEKLMEQNRLKNVTPLSANQKSLIARLVWYQEGYEQPSEEDLKRVTQTWQLEEEEEEETDMPFRQITEMTILTVQLIVEFAKGLPGFSKISQSDQITLLKASSSEVMMLRVARRYDAATDSVLFANNQAYTRDNYRKAGMSYVIEDLLHFCRCMYSMSMDNVHYALLTAIVIFSDRPGLEQPLLVEEIQRYYLKTLRVYILNQHSASPRCAVLFGKILGVLTELRTLGTQNSNMCISLKLKNRKLPPFLEEIWDVAEVSTTKL
Experiment #1 RLU [1]: 1.71 RLU | Experiment #2 RLU [1]: 1.77 RLU

B5: G(M)MD: EcR chimera: GAL4 DBD, Manduca sexta D and E domains, maize Dof1 activation domain; SEQ ID NO:136-137 (protein)
chain: MQQLYVDFFSPAFIRYLFAWYCFFCRCSPCCLVLLLQGSATMKLLSSIEQACDICRLKKLKCSKEKPKCAKCLKNNWECRYSPKTKRSPLTRAHLTEVESRLERLEQLFLLIFPREDLDMILKMDSLQDIKALLTGLFVQDNVNKDAVTDRLASVETDMPLTLRQHRISATSSSEESSNKGQRQLTVSTRMRPECVVPESTCKNKRREKEAQREKDKLPVSTTTVDDHMPAIMQCDPPPPEAARIHEVVPRFLTEKLMEQNRLKNVTPLSANQKSLIARLVWYQEGYEQPSEEDLKRVTQTWQLEEEEEEETDMPFRQITEMTILTVQLIVEFAKGLPGFSKISQSDQITLLKASSSEVMMLRVARRYDAATDSVLFANNQAYTRDNYRKAGMSYVIEDLLHFCRCMYSMSMDNVHYALLTAIVIFSDRPGLEQPLLVEEIQRYYLKTLRVYILNQHSASPRCAVLFGKILGVLTELRTLGTQNSNMCISLKLKNRKLPPFLEEIWDVAEVSTTKLELATAADPGKTATTTTTTTSEITTETGALEDSDSLAHLLLQPGTEDAEAVALGLGLSDFPSAGKAVLDDEDSFVWPAASFDMGACWAGAGFADPDPACIFLNLP
Experiment #1 Luciferase (+ 10 μM Teb): 6.37 | Experiment #2 Luciferase (+ 10 μM Teb): 9.14 | Experiment #1 Fold Induction: 3.0 fold | Experiment #2 Fold Induction: 7.8 fold | Experiment #1 Luciferase [1]: 2.14 | Experiment #2 Luciferase [1]: 1.18
